Patent US20160272683A1 (Novo Nordisk, published 2016)
Numbered stars: 1 amine (or outer) side, 2 acyl side, 3 side chain; on linkers, the order of the positions; unused ones are H or OH. * marks the point of attachment. C20 diacid = O=C(O)CCCCCCCCCCCCCCCCCCC(=O)*; C18 diacid = O=C(O)CCCCCCCCCCCCCCCCC(=O)*; γGlu = O=C(O)[C@H](CCC(=O)[*:2])N[*:1]; AEEA = NCCOCCOCC(=O)O

T1: human amylin 3(a) receptor (human calcitonin receptor co-expressed with RAMP-3) on BHK570/CRE-luc cells (human, UniProt P30988 25-474; O60896 24-148)
T1 sequence (looked up) 1: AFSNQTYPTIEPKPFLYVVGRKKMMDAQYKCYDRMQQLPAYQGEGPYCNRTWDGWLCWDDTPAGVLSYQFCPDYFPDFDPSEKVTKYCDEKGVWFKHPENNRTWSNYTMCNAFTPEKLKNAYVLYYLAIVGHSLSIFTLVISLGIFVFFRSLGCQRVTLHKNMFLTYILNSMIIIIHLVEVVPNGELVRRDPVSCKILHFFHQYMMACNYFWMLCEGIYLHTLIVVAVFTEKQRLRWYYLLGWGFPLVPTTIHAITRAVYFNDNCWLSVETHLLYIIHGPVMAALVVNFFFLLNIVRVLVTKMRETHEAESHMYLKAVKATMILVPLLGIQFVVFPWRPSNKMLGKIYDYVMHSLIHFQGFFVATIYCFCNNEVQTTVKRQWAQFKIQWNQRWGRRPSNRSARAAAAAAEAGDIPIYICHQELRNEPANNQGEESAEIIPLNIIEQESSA
T1 sequence (looked up) 2: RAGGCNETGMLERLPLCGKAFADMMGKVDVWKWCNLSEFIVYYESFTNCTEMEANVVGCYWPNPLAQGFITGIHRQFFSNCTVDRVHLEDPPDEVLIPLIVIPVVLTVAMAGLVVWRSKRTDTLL

T2: human calcitonin receptor on BHK570/CRE-luc cells (human, UniProt P30988 25-474)
T2 sequence (looked up): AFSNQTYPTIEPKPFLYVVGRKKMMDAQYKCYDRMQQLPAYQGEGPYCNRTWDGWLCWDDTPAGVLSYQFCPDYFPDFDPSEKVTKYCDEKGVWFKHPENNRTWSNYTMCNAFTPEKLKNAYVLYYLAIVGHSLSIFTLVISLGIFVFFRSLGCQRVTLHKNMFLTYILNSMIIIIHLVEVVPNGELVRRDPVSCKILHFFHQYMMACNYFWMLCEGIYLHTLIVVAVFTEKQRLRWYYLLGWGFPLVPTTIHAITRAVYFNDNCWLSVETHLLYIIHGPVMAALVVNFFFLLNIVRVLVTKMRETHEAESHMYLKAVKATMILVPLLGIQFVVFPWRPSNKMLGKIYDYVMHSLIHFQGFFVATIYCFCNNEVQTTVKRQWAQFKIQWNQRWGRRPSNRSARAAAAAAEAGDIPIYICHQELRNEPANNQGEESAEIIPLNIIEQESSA


Legend:
[1] = biological target: T1, human amylin 3(a) receptor (human …); assay: cell-based or functional assay
[2] = biological target: T2, human calcitonin receptor on …; assay: cell-based or functional assay

| hAmylin-R funct. EC50 (pM), tested with HSA [1] | hCTR funct. EC50 (pM), tested with HSA [2] | Binder |
| --- | --- | --- |
| 152 pM | 72 pM | {C20 diacid-γGlu}-ASGLSTAVLGRLSQELHELQTYPPTETGSQTY-NH2 (SMILES CC(C)C[C@H](NC(=O)CNC(=O)[C@H](CO)NC(=O)[C@H](C)NC(=O)CC[C@H](NC(=O)CCCCCCCCCCCCCCCCCCC(=O)O)C(=O)O)C(=O)N[C@@H](CO)C(=O)N[C@H](C(=O)N[C@@H](C)C(=O)N[C@H](C(=O)N[C@@H](CC(C)C)C(=O)NCC(=O)N[C@@H](CCCNC(=N)N)C(=O)N[C@@H](CC(C)C)C(=O)N[C@@H](CO)C(=O)N[C@@H](CCC(N)=O)C(=O)N[C@@H](CCC(=O)O)C(=O)N[C@@H](CC(C)C)C(=O)N[C@@H](Cc1c[nH]cn1)C(=O)N[C@@H](CCC(=O)O)C(=O)N[C@@H](CC(C)C)C(=O)N[C@@H](CCC(N)=O)C(=O)N[C@H](C(=O)N[C@@H](Cc1ccc(O)cc1)C(=O)N1CCC[C@H]1C(=O)N1CCC[C@H]1C(=O)N[C@H](C(=O)N[C@@H](CCC(=O)O)C(=O)N[C@H](C(=O)NCC(=O)N[C@@H](CO)C(=O)N[C@@H](CCC(N)=O)C(=O)N[C@H](C(=O)N[C@@H](Cc1ccc(O)cc1)C(N)=O)[C@@H](C)O)[C@@H](C)O)[C@@H](C)O)[C@@H](C)O)C(C)C)[C@@H](C)O) [[N-terminal(C20 diacid-gGlu), des1, 4G, 9V, 15Q, 21Q, 23Y, 25P, 30S, 31Q, 32T, 33Y]mimylin] |
| 86 pM | 61 pM | {C20 diacid-γGlu}-ASGLSTAVLGRLSQELHELQTYPRTETGSQTY-NH2 (SMILES CC(C)C[C@H](NC(=O)CNC(=O)[C@H](CO)NC(=O)[C@H](C)NC(=O)CC[C@H](NC(=O)CCCCCCCCCCCCCCCCCCC(=O)O)C(=O)O)C(=O)N[C@@H](CO)C(=O)N[C@H](C(=O)N[C@@H](C)C(=O)N[C@H](C(=O)N[C@@H](CC(C)C)C(=O)NCC(=O)N[C@@H](CCCNC(=N)N)C(=O)N[C@@H](CC(C)C)C(=O)N[C@@H](CO)C(=O)N[C@@H](CCC(N)=O)C(=O)N[C@@H](CCC(=O)O)C(=O)N[C@@H](CC(C)C)C(=O)N[C@@H](Cc1c[nH]cn1)C(=O)N[C@@H](CCC(=O)O)C(=O)N[C@@H](CC(C)C)C(=O)N[C@@H](CCC(N)=O)C(=O)N[C@H](C(=O)N[C@@H](Cc1ccc(O)cc1)C(=O)N1CCC[C@H]1C(=O)N[C@@H](CCCNC(=N)N)C(=O)N[C@H](C(=O)N[C@@H](CCC(=O)O)C(=O)N[C@H](C(=O)NCC(=O)N[C@@H](CO)C(=O)N[C@@H](CCC(N)=O)C(=O)N[C@H](C(=O)N[C@@H](Cc1ccc(O)cc1)C(N)=O)[C@@H](C)O)[C@@H](C)O)[C@@H](C)O)[C@@H](C)O)C(C)C)[C@@H](C)O) [[N-terminal(C20 diacid-gGlu), des1, 4G, 9V, 15Q, 21Q, 23Y, 30S, 31Q, 32T, 33Y]mimylin] |
| 80 pM | 38 pM | {C18 diacid-γGlu-AEEA-AEEA}-ASGLSTAVLGRLSQELHELQTYPRTETGSGTY-NH2 (SMILES CC(C)C[C@H](NC(=O)CNC(=O)[C@H](CO)NC(=O)[C@H](C)NC(=O)COCCOCCNC(=O)COCCOCCNC(=O)CC[C@H](NC(=O)CCCCCCCCCCCCCCCCC(=O)O)C(=O)O)C(=O)N[C@@H](CO)C(=O)N[C@H](C(=O)N[C@@H](C)C(=O)N[C@H](C(=O)N[C@@H](CC(C)C)C(=O)NCC(=O)N[C@@H](CCCNC(=N)N)C(=O)N[C@@H](CC(C)C)C(=O)N[C@@H](CO)C(=O)N[C@@H](CCC(N)=O)C(=O)N[C@@H](CCC(=O)O)C(=O)N[C@@H](CC(C)C)C(=O)N[C@@H](Cc1c[nH]cn1)C(=O)N[C@@H](CCC(=O)O)C(=O)N[C@@H](CC(C)C)C(=O)N[C@@H](CCC(N)=O)C(=O)N[C@H](C(=O)N[C@@H](Cc1ccc(O)cc1)C(=O)N1CCC[C@H]1C(=O)N[C@@H](CCCNC(=N)N)C(=O)N[C@H](C(=O)N[C@@H](CCC(=O)O)C(=O)N[C@H](C(=O)NCC(=O)N[C@@H](CO)C(=O)NCC(=O)N[C@H](C(=O)N[C@@H](Cc1ccc(O)cc1)C(N)=O)[C@@H](C)O)[C@@H](C)O)[C@@H](C)O)[C@@H](C)O)C(C)C)[C@@H](C)O) [[N-terminal(C18 diacid-gGlu-2xOEG), des1, 4G, 9V, 15Q, 21Q, 23Y, 30S, 31G, 32T, 33Y]mimylin] |
| 123 pM | 68 pM | {C20 diacid-γGlu-AEEA-AEEA}-ASGLSTAVLGRLSQELHELQTYPRTETGSGTY-NH2 (SMILES CC(C)C[C@H](NC(=O)CNC(=O)[C@H](CO)NC(=O)[C@H](C)NC(=O)COCCOCCNC(=O)COCCOCCNC(=O)CC[C@H](NC(=O)CCCCCCCCCCCCCCCCCCC(=O)O)C(=O)O)C(=O)N[C@@H](CO)C(=O)N[C@H](C(=O)N[C@@H](C)C(=O)N[C@H](C(=O)N[C@@H](CC(C)C)C(=O)NCC(=O)N[C@@H](CCCNC(=N)N)C(=O)N[C@@H](CC(C)C)C(=O)N[C@@H](CO)C(=O)N[C@@H](CCC(N)=O)C(=O)N[C@@H](CCC(=O)O)C(=O)N[C@@H](CC(C)C)C(=O)N[C@@H](Cc1c[nH]cn1)C(=O)N[C@@H](CCC(=O)O)C(=O)N[C@@H](CC(C)C)C(=O)N[C@@H](CCC(N)=O)C(=O)N[C@H](C(=O)N[C@@H](Cc1ccc(O)cc1)C(=O)N1CCC[C@H]1C(=O)N[C@@H](CCCNC(=N)N)C(=O)N[C@H](C(=O)N[C@@H](CCC(=O)O)C(=O)N[C@H](C(=O)NCC(=O)N[C@@H](CO)C(=O)NCC(=O)N[C@H](C(=O)N[C@@H](Cc1ccc(O)cc1)C(N)=O)[C@@H](C)O)[C@@H](C)O)[C@@H](C)O)[C@@H](C)O)C(C)C)[C@@H](C)O) [[N-terminal(C20 diacid-gGlu-2xOEG), des1, 4G, 9V, 15Q, 21Q, 23Y, 30S, 31G, 32T, 33Y]mimylin] |
| 64 pM | 34 pM | {C20 diacid-γGlu}-LSGLSTAVLGRLSAELHELSTYPRTETGSGTY-NH2 (SMILES CC(C)C[C@H](NC(=O)CC[C@H](NC(=O)CCCCCCCCCCCCCCCCCCC(=O)O)C(=O)O)C(=O)N[C@@H](CO)C(=O)NCC(=O)N[C@@H](CC(C)C)C(=O)N[C@@H](CO)C(=O)N[C@H](C(=O)N[C@@H](C)C(=O)N[C@H](C(=O)N[C@@H](CC(C)C)C(=O)NCC(=O)N[C@@H](CCCNC(=N)N)C(=O)N[C@@H](CC(C)C)C(=O)N[C@@H](CO)C(=O)N[C@@H](C)C(=O)N[C@@H](CCC(=O)O)C(=O)N[C@@H](CC(C)C)C(=O)N[C@@H](Cc1c[nH]cn1)C(=O)N[C@@H](CCC(=O)O)C(=O)N[C@@H](CC(C)C)C(=O)N[C@@H](CO)C(=O)N[C@H](C(=O)N[C@@H](Cc1ccc(O)cc1)C(=O)N1CCC[C@H]1C(=O)N[C@@H](CCCNC(=N)N)C(=O)N[C@H](C(=O)N[C@@H](CCC(=O)O)C(=O)N[C@H](C(=O)NCC(=O)N[C@@H](CO)C(=O)NCC(=O)N[C@H](C(=O)N[C@@H](Cc1ccc(O)cc1)C(N)=O)[C@@H](C)O)[C@@H](C)O)[C@@H](C)O)[C@@H](C)O)C(C)C)[C@@H](C)O) [[N-terminal(C20 diacid-gGlu), des1, 2L, 4G, 9V, 21S, 23Y, 30S, 31G, 32T, 33Y]mimylin] |
| 122 pM | 92 pM | {C20 diacid-γGlu}-ASGLSTATLGRLSQELHELQTYPRTETGSGTY-NH2 [[N-terminal(C20 diacid-gGlu), des1, 4G, 9T, 15Q, 21Q, 23Y, 30S, 31G, 32T, 33Y]mimylin] |
| 223 pM | 142 pM | {C20 diacid-γGlu}-ASGLSTLVLGRLSQELHELQTYPRTETGSQTY-NH2 (SMILES CC(C)C[C@H](NC(=O)CNC(=O)[C@H](CO)NC(=O)[C@H](C)NC(=O)CC[C@H](NC(=O)CCCCCCCCCCCCCCCCCCC(=O)O)C(=O)O)C(=O)N[C@@H](CO)C(=O)N[C@H](C(=O)N[C@@H](CC(C)C)C(=O)N[C@H](C(=O)N[C@@H](CC(C)C)C(=O)NCC(=O)N[C@@H](CCCNC(=N)N)C(=O)N[C@@H](CC(C)C)C(=O)N[C@@H](CO)C(=O)N[C@@H](CCC(N)=O)C(=O)N[C@@H](CCC(=O)O)C(=O)N[C@@H](CC(C)C)C(=O)N[C@@H](Cc1c[nH]cn1)C(=O)N[C@@H](CCC(=O)O)C(=O)N[C@@H](CC(C)C)C(=O)N[C@@H](CCC(N)=O)C(=O)N[C@H](C(=O)N[C@@H](Cc1ccc(O)cc1)C(=O)N1CCC[C@H]1C(=O)N[C@@H](CCCNC(=N)N)C(=O)N[C@H](C(=O)N[C@@H](CCC(=O)O)C(=O)N[C@H](C(=O)NCC(=O)N[C@@H](CO)C(=O)N[C@@H](CCC(N)=O)C(=O)N[C@H](C(=O)N[C@@H](Cc1ccc(O)cc1)C(N)=O)[C@@H](C)O)[C@@H](C)O)[C@@H](C)O)[C@@H](C)O)C(C)C)[C@@H](C)O) [[N-terminal(C20 diacid-gGlu), des1, 4G, 8L, 9V, 15Q, 21Q, 23Y, 30S, 31Q, 32T, 33Y]mimylin] |
| 77 pM | 37 pM | {C20 diacid-γGlu}-ASGLSTAVLGRLSQELHELQTYPRTETGSATY-NH2 (SMILES CC(C)C[C@H](NC(=O)CNC(=O)[C@H](CO)NC(=O)[C@H](C)NC(=O)CC[C@H](NC(=O)CCCCCCCCCCCCCCCCCCC(=O)O)C(=O)O)C(=O)N[C@@H](CO)C(=O)N[C@H](C(=O)N[C@@H](C)C(=O)N[C@H](C(=O)N[C@@H](CC(C)C)C(=O)NCC(=O)N[C@@H](CCCNC(=N)N)C(=O)N[C@@H](CC(C)C)C(=O)N[C@@H](CO)C(=O)N[C@@H](CCC(N)=O)C(=O)N[C@@H](CCC(=O)O)C(=O)N[C@@H](CC(C)C)C(=O)N[C@@H](Cc1c[nH]cn1)C(=O)N[C@@H](CCC(=O)O)C(=O)N[C@@H](CC(C)C)C(=O)N[C@@H](CCC(N)=O)C(=O)N[C@H](C(=O)N[C@@H](Cc1ccc(O)cc1)C(=O)N1CCC[C@H]1C(=O)N[C@@H](CCCNC(=N)N)C(=O)N[C@H](C(=O)N[C@@H](CCC(=O)O)C(=O)N[C@H](C(=O)NCC(=O)N[C@@H](CO)C(=O)N[C@@H](C)C(=O)N[C@H](C(=O)N[C@@H](Cc1ccc(O)cc1)C(N)=O)[C@@H](C)O)[C@@H](C)O)[C@@H](C)O)[C@@H](C)O)C(C)C)[C@@H](C)O) [[N-terminal(C20 diacid-gGlu), des1, 4G, 9V, 15Q, 21Q, 23Y, 30S, 31A, 32T, 33Y]mimylin] |
